According to patent US20210324058A1 (BRIGHAM AND WOMEN S HOSPITAL, published 2021):

Key:
[1] = target: T1, recombinant human NEDD9 (neural precursor cell expressed, developmentally down-regulated 9), OriGene TP307200 (human, UniProt Q14511 1-834); test: microscale thermophoresis, labelled NEDD9 20 nM, P-Selectin titrated
T1 construct: Bought recombinant protein; In microscale thermophoresis it was labelled with the dye NT-647-NHS; also called recombinant NEDD9; purified human NEDD9
T1 sequence (looked up): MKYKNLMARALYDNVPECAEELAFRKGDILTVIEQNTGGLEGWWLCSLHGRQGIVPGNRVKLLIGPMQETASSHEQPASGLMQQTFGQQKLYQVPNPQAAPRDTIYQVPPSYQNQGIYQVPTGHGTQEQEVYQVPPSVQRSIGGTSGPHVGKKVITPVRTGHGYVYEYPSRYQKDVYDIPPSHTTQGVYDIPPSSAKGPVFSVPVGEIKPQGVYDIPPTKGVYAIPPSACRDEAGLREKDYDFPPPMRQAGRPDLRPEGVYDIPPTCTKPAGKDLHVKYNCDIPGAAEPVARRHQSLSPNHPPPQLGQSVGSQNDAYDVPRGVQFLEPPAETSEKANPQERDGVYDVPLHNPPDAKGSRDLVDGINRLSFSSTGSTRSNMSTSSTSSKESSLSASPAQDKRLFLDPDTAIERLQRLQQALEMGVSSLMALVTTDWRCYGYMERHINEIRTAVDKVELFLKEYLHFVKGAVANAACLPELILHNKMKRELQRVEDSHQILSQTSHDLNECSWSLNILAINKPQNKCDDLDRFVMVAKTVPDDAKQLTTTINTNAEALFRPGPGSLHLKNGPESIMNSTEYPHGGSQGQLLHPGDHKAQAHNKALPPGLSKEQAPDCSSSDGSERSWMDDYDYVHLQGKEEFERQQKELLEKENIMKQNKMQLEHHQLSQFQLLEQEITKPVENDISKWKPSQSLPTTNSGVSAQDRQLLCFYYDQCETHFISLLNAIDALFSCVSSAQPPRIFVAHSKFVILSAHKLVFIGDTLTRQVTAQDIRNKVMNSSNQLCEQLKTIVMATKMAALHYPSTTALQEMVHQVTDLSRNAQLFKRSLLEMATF
Method: (§1) FIGS. 4A-E. P-Selectin binds the NEDD9 substrate domain. (A) HPAEC plasma membrane fractions were incubated with recombinant P-Selectin (0.5-1.0 μg), and liquid chromatography-mass spectrometry (LC-MS) was performed on samples following anti-P-Selectin immunoprecipitation. The MS2 spectra for each of the two detected NEDD9 peptide sequences, both within the substrate domain, are shown: K.[…].D (AA: 91-102; SEQ ID NO:9) (m z 677.36735 at retention time […]) (N9-P1) and K.[…].G (AA: 191-211; SEQ ID NO:10) (m/z 808.77731 at retention time […]) (N9-P2) (N=2 replicates for N=2 iterations). Underlining indicates a YxxP sequence. (B) HPAEC plasma membrane fractions were incubated with exogenous P-Selectin and co-immunoprecipitation for P-Selectin and NEDD9 was performed. PM, plasma membrane; UN, untreated. Varying concentrations of P-Selectin (ligand) (2 μM-0.5 nM) were co-incubated with NEDD9 (receptor) (20 nM) and microscale thermophoresis was performed to assess macromolecular interactions between these proteins. […]
(§2) Microscale Thermophoresis. […] In preliminary studies, we determined that Tris buffer containing 10% glycerol, 1% BSA, 0.05% Tween-20 and 5 mM DDT was an optimal buffer to minimize sample aggregation and adsorption in the capillary tube.³⁹ For experiments, NEDD9 (20 nM) was incubated with decreasing concentrations of P-Selectin (2 μM-0.5 nM) and MST scan was performed.

[2] = target: T1, recombinant human NEDD9 (neural …); test: microscale thermophoresis; dye-labelled NEDD9 20 nM, P-Selectin titrated 2 µM-0.5 nM, N=2
Method: as §1, §2

[3] = target: T2, endogenous human NEDD9 of human pulmonary artery endothelial cells (lysates and plasma membrane fractions) (human, UniProt Q14511 1-834, limits assumed); test: co-immunoprecipitation from HPAEC plasma membrane fractions incubated with recombinant P-Selectin for 1 hr
T2 construct: Endogenous protein in cell material; also called NEDD9 in HPAECs; NEDD9 p55 fragment
T2 sequence (looked up): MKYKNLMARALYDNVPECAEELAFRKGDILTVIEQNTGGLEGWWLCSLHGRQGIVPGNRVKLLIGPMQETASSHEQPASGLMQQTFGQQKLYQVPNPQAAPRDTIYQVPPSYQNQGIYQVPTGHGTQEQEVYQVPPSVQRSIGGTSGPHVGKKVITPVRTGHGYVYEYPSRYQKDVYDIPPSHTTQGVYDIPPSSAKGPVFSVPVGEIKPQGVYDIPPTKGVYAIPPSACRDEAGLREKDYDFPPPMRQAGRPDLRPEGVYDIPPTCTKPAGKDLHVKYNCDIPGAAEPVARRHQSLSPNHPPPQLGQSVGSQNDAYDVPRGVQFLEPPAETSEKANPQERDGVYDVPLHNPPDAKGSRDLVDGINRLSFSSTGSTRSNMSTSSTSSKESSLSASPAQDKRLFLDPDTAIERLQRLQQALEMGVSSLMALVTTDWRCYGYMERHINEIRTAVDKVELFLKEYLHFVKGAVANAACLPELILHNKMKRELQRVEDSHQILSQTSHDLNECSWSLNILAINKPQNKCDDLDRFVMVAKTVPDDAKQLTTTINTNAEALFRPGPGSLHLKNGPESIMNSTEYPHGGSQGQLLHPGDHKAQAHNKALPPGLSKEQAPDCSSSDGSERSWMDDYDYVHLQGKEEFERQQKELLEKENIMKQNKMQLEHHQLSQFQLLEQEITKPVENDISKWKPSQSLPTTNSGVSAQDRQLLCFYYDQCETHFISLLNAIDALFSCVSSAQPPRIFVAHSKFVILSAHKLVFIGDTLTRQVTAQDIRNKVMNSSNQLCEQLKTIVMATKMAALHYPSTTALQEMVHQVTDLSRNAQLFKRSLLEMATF
Method: Magnetic beads (Bio-Rad SureBeads) were resuspended in 100 μl solution (1 mg at 10 mg/mL), magnetized, and serially washed with 1 mL PBS+0.1% Tween 20 (PBS-T). Primary antibody (10 μg) (Table 2) was added to the resuspended beads in a final volume of 200 μl and rotated at room temperature for 10 min. The beads were then magnetized and serially washed with 1 mL PBS-T before incubation with the antigen-containing HPAEC plasma membrane lysate (250-500 μl) plus recombinant P-Selectin (R&D Systems) (0.5-1.0 μg) for 1 hr at room temperature. In the cell-free immunoprecipitation experiment, the antibody-labeled beads were incubated with recombinant NEDD9 (Origene)³⁹ (5 ng) and recombinant P-Selectin (5 ng) in the presence of IgG₁ control, msAb-N9-P1 (10-20 uM), or msAb-N9-P2 (10-20 μM) for 1 hr at room temperature. […]
Next, LC-MS was performed on in-gel trypsin-digested lysates, and identified only two NEDD9 peptide sequences, both within the substrate domain: K.[…].D (AA: 91-102; SEQ ID NO:9) (N9-P1) and K.[…].G (AA: 191-211; SEQ ID NO:10) (N9-P2) (N=2 replicates for N=2 iterations) (FIG. 4A). […] Plasma membrane fractions from HPAECs were incubated with V-control or exogenous (recombinant) P-Selectin for 1 hr, and P-Selectin-NEDD9 complex formation was assessed by co-immunoprecipitation.

B1: recombinant P-Selectin/CD62P, R&D Systems ADP3-200 (other, human, UniProt P16109 42-771, looked up)
chain: WTYHYSTKAYSWNISRKYCQNRYTDLVAIQNKNEIDYLNKVLPYYSSYYWIGIRKNNKTWTWVGTKKALTNEAENWADNEPNNKRNNEDCVEIYIKSPSAPGKWNDEHCLKKKHALCYTASCQDMSCSKQGECLETIGNYTCSCYPGFYGPECEYVRECGELELPQHVLMNCSHPLGNFSFNSQCSFHCTDGYQVNGPSKLECLASGIWTNKPPQCLAAQCPPLKIPERGNMTCLHSAKAFQHQSSCSFSCEEGFALVGPEVVQCTASGVWTAPAPVCKAVQCQHLEAPSEGTMDCVHPLTAFAYGSSCKFECQPGYRVRGLDMLRCIDSGHWSAPLPTCEAISCEPLESPVHGSMDCSPSLRAFQYDTNCSFRCAEGFMLRGADIVRCDNLGQWTAPAPVCQALQCQDLPVPNEARVNCSHPFGAFRYQSVCSFTCNEGLLLVGASVLQCLATGNWNSVPPECQAIPCTPLLSPQNGTMTCVQPLGSSSYKSTCQFICDEGYSLSGPERLDCTRSGRWTDSPPMCEAIKCPELFAPEQGSLDCSDTRGEFNVGSTCHFSCDNGFKLEGPNNVECTTSGRWSATPPTCKGIASLPTPGVQCPALTTPGQGTMYCRHHPGTFGFNTTCYFGCNAGFTLIGDSTLSCRPSGQWTAVTPACRAVKCSELHVNKPIAMNCSNLWGNFSYGSICSFHCLEGQLLNGSAQTACQENGHWSTTVPTCQAGPLTIQEA
notes: Bought recombinant protein; Species is read from 'Purified human NEDD9 and P-Selectin/CD62P'; also called exogenous P-Selectin
Question: How did the “EC50 (read off the curve)” value [1] turn out when B1 was run?
Answer: ~60 nM

Question: And the Kd [2]?
Answer: 13.9 nM

Question: And the “fold increase of NEDD9:P-Selectin complex formation against V-control” value [3]?
Answer: 3 fold
